Test results taken from patent publication US20200223915A1 (OSAKA UNIVERSITY, published 2020).

Experiments:
Test in all cases: FACS on Claudin-expressing cells
[1] = target: T1, wild-type human Claudin 1 protein (human, UniProt O95832 1-211)
T1 construct: Expressed on cells by retrovirus; also called hCLDN1
T1 sequence: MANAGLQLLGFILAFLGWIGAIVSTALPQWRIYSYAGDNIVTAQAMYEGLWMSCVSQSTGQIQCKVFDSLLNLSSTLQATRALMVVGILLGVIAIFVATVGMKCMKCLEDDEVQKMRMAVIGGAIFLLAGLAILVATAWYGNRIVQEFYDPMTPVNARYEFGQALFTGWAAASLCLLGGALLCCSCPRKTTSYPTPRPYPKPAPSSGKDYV
Experimental: (§1) The cells were washed three times with 0.2% BSA-TBS, and then mixed with 100 μL of a secondary antibody solution (FITC conjugated goat anti-mouse IgG+IgM in 1% BSA-PBS (1:400)), followed by a reaction at 4° C. for 1 hour. The cells were washed with 0.2% BSA-TBS, and FACS analysis (FACS caliber, BD Bioscience) was performed.

[2] = target: T2, wild-type mouse Claudin 2 protein (mouse, UniProt O88552 1-230)
T2 construct: Expressed on cells by retrovirus; Wording leaves open whether the entry is the protein or the DNA; also called mCLDN2
T2 sequence: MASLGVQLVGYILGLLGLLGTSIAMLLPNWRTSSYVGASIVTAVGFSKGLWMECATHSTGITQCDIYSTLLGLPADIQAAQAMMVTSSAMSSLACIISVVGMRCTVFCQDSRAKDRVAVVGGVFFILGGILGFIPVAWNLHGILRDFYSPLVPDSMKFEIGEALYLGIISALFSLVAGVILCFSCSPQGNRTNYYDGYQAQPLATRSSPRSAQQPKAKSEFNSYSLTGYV
Experimental: as §1

[3] = target: T3, wild-type human Claudin 9 protein (human, UniProt O95484 1-217)
T3 construct: Expressed on cells by retrovirus; Wording leaves open whether the entry is the protein or the DNA; also called hCLDN9
T3 sequence: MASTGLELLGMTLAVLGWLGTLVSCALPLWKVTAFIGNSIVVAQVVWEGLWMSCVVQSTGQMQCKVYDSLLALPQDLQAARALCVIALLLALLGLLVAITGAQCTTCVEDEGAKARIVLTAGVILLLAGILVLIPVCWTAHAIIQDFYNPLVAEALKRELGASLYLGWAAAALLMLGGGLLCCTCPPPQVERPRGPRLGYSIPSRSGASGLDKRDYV
Experimental: as §1

[4] = target: T4, wild-type mouse Claudin 3 protein (mouse, UniProt Q9Z0G9 1-219)
T4 construct: Expressed on cells by retrovirus; Wording leaves open whether the entry is the protein or the DNA; also called mCLDN3
T4 sequence: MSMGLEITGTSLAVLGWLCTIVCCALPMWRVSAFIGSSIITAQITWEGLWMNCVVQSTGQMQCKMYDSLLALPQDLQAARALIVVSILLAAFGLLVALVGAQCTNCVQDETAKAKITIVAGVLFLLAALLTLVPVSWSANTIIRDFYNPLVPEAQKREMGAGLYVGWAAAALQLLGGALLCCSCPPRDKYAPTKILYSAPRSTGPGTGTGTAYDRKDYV
Experimental: as §1

[5] = target: T5, wild-type mouse Claudin 1 protein (mouse, UniProt O88551 1-211)
T5 construct: Expressed on cells by retrovirus; Wording leaves open whether the entry is the protein or the DNA; also called mCLDN1
T5 sequence: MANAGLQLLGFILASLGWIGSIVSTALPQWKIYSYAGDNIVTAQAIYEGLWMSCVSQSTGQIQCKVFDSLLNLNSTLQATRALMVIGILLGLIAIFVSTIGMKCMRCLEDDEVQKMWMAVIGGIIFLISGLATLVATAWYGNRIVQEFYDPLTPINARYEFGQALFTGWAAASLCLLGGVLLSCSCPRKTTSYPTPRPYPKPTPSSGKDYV
Experimental: as §1

[6] = target: T6, wild-type human Claudin 2 protein (human, UniProt P57739 1-230)
T6 construct: Expressed on cells by retrovirus; Wording leaves open whether the entry is the protein or the DNA; also called hCLDN2
T6 sequence: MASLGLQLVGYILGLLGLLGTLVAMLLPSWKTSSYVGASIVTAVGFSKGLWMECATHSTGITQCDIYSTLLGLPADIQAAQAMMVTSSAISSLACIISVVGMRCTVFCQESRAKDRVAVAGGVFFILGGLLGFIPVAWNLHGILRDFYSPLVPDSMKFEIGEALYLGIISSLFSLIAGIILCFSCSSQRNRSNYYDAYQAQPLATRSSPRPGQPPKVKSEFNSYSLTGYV
Experimental: as §1

[7] = target: T7, wild-type human Claudin 6 protein (human, UniProt P56747 1-220)
T7 construct: Expressed on cells by retrovirus; Wording leaves open whether the entry is the protein or the DNA; also called hCLDN6
T7 sequence: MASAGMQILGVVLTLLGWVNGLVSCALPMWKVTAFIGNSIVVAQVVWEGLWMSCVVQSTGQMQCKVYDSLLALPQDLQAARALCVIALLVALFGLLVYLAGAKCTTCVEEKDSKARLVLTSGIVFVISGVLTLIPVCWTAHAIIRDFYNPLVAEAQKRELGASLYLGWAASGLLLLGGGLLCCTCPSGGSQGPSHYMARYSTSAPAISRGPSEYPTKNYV
Experimental: as §1

[8] = target: T8, wild-type human Claudin 7 protein (human, UniProt O95471 1-211)
T8 construct: Expressed on cells by retrovirus; Wording leaves open whether the entry is the protein or the DNA; also called hCLDN7
T8 sequence: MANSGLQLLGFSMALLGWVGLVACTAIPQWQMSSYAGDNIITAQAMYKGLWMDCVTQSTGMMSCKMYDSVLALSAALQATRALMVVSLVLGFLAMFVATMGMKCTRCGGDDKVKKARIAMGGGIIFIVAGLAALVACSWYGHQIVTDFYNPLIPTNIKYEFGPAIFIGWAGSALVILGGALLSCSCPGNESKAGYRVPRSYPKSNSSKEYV
Experimental: as §1

[9] = target: T9, wild-type mouse Claudin 4 protein (mouse, UniProt O35054 1-210)
T9 construct: Expressed on cells by retrovirus; Wording leaves open whether the entry is the protein or the DNA; also called mCLDN4
T9 sequence: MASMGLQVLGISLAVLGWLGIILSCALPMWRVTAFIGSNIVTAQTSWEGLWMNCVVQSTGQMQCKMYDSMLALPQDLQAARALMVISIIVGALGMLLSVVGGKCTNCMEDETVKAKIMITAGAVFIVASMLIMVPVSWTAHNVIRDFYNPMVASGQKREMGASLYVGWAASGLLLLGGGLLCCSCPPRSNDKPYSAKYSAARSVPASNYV
Experimental: as §1

Measured: binding result

B1: antibody 2B1 (antibody, IgG2a, V domains shown)
VH: QVQLQQPGAELVKPGASVKLSCKASGYTFTTFWIHWVKQRPGRGLEWIGRIAPYSGGTTYNEKFKSKATLTVDRPSTTAYMQLISLTSEDSAVYYCARWDFTYGSNLDYWGQGTTLTVSS
VL: DIVMTQSQKFMSTSVGDRVSIPCKASQNVRTAVAWYQQKPGQSPKALIYLASNRHTGVPDRFTGSGSGTDFTLTISNVQSEDLADYFCLGHWDYPYTFGGGTKLEIKR
notes: also called antibody B
no binding (tested: 10 µg/mL): all assays above

B2: antibody 2B12 (antibody, IgG2a, V domains shown)
VH: QVQLQQSGAELARPGASVKLSCKASGYTFTRFGMSWVKQRTGQGLEWIGEIYPGSGDTYYSENFKGKATLTADKSSGTAYMELRSLTSEDSAVYFCARWGIYYGNPYAMDYWGQGTSVTVSS
VL: DIVMTQAAPSVPVTPGESVSISCRSSKSLLHSNGNTYLYWFLQRPGQSPQLLIYRMSNLASGVPDRFSGSGSGTAFTLRISRVEAEDVGVYYCLQHLEYPFTFGSGTKLEIKR
notes: also called antibody A
no binding (tested: 10 µg/mL): all assays above
